Laboratory results as given in patent US8652790B2, “Conformational entropy in molecular recognition” (The Trustees of the University of Pennsylvania, priority 2007, dated 2014).

Assays:
[1] = biological target: T1, calmodulin (Homo sapiens, UniProt P0DP23); assay: NMR relaxation: backbone dynamics (order parameters) of calmodulin in complex with target domains; details: average ± standard deviation, 35° C.; for <O^2CαCO>: CO—Cα bond vectors of calmodulin in complex; for <O^2NH>: N—H bond vectors of calmodulin in complex
Source text: The sub-nanosecond (sub-ns) dynamics of the polypeptide backbone of calmodulin in the six complexes were probed using NMR relaxation techniques. The degree of spatial restriction of each motional probe was assigned a number between 0, corresponding to complete isotropic disorder, and 1, corresponding to a fixed orientation in the molecular frame. This parameter is the squared generalized order parameter (O^2) as it applies to the amide N—H bond (O^2NH), the Cα—C′ bond (O^2cαcO) and the methyl symmetry axis (O^2axis). O^2NH parameters at amide nitrogen sites were obtained from measurements of ^15N dipolar relaxation. Farrow, N. A. et al. Backbone dynamics of a free and a phosphopeptide-complexed Src homology-2 domain studied by ^15N NMR relaxation. Biochemistry 33, 5984-6003 (1994). O^2cαcO parameters were obtained from measurement of transverse cross-correlated relaxation between ^13CO chemical shift anisotropy and the ^13CO—^13Cα dipolar interactions. Wang, T., Cai, S. & Zuiderweg, E. R. Temperature dependence of anisotropic protein backbone dynamics. J. Am. Chem. Soc. […] The motion of methyl groups (O^2axis) of calmodulin side chains were characterized using ^2H spin relaxation methods. Muhandiram, D. R. et al. Measurement of H-2 T-1 and T-1p relaxation-times in uniformly C-13-Labeled and fractionally H-2-labeled proteins in solution. J. Am. Chem. Soc. 117, 11536-11544 (1995).
O^2axis parameters were determined from T1 and T1p deuterium relaxation (Muhandiram, D. R. et al. Measurement of H-2 T-1 and T-1p relaxation-times in uniformly C-13-Labeled and fractionally H-2-labeled proteins in solution. J. Am. Chem. Soc. 117, 11536-11544 (1995)) measured at two magnetic fields. Rotational correlation times and O^2NH were determined from ^15N relaxation (Farrow, N. A. et al. Backbone dynamics of a free and a phosphopeptide-complexed Src homology-2 domain studied by ^15N NMR relaxation. Biochemistry 33, 5984-6003 (1994)) obtained at two magnetic fields. O^2CαCO parameters were determined by transverse cross-correlated relaxation. Wang, T., Cai, S. & Zuiderweg, E. R. Temperature dependence of anisotropic protein backbone dynamics. J. Am. Chem. Soc. […] All measurements were made at 35° C. Model-free parameters (Lipari, G. & Szabo, A. Model-free approach to the interpretation of nuclear magnetic-resonance relaxation in macromolecules. 1. Theory and range of validity. J. Am. Chem. Soc. 104, 4546-4559 (1982)) were determined using a grid search approach (Dellwo, M J. & Wand, A. J. Model-independent and model-dependent analysis of the global and internal dynamics of cyclosporine-A. J. Am. Chem. Soc. 111, 4571-4578 (1989)) using a quadrupolar coupling constant of 167 kHz, an effective N—H bond length of 1.04 Å and ^15N tensor breadth of 170 p.p.m. […] The model-free parameters have been deposited in the Biological Magnetic Resonance Data Bank (“BioMagResBank,” Eldon L. Ulrich; Hideo Akutsu; Jurgen F. Doreleijers; Yoko Harano; Yannis E. Ioannidis; Jundong Lin; Miron Livny; Steve Mading; Dimitri Maziuk; Zachary Miller; Eiichi Nakatani; Christopher F. Schulte; David E. Tolmie; R. Kent Wenger; Hongyang Yao; John L. Markley; Nucleic Acids Research 36, D402-D408 (2007) doi: 10.1093/nar/gkm957).

[2] = biological target: T1, calmodulin; assay: Populations of J, α, ω motional classes of calmodulin methyl O^2axis distributions in the complexes
Method: FIG. 3a, provides a histogram of the sum of the O^2axis parameter distributions of calmodulin in the six individual complexes obtained at 35° C. The solid line represents the best-fitted solution to a 3-gaussian distribution with all nine parameters fitted. FIG. 3b provides histograms of the O^2axis parameter distributions of calmodulin in the individual complexes. […]
The summed distribution of O^2axis axis parameters of all six complexes was fitted to a random distribution and to one, two- and three-gaussian distribution models. […] (3) where Ai, Ci and Wi define the population, centre and breadth, respectively, of the J, α and ω classes of motion.
The nine parameters were fitted using the nonlinear regression routine of SigmaPlot 2000 (SPSS). […] These centres were fixed in subsequent fitting of the O^2axis distributions of the individual complexes, from which the relative populations of each motional class were obtained. Uncertainties in the fitted populations were estimated by varying the O^2axis parameters by two standard deviations. […] The total change in conformational entropy of calmodulin on binding a target domain was calculated as the sum of three terms: ΔSconf=ΔSharm+ΔSrotamer(fast)+ΔSrotamer(slow). Changes in conformational entropy ΔSrotamer(fast) expressed as changes in motion within a rotameric well on the fast timescale (sub-ns) were obtained from the experimentally determined O^2axis parameters using a simple harmonic oscillator model. Li Z et al. (1996). To calculate changes in entropy derived from motion of the same oscillator, site-to-site comparison to free calcium-saturated calmodulin was used to provide a reference state. The change in the entropy reflected by the change in the motion of each methyl symmetry axis was estimated using ΔSharm=−18×ΔO^2axis J mol^−1 K^−1. See Li Z et al. (1996) for further details of the model. To normalize the unequal number of resolved sites among the complexes, the average methyl order parameter within a complex was assigned to each unresolved site of that complex. A classical entropy term (ΔSrotamer(fast)) was added to represent minor conformers that are sampled owing to fast rotameric interconversion that also contributes to the generalized order parameter. Lee, A. L. et al. Temperature dependence of the internal dynamics of a calmodulin peptide complex. Biochemistry 41, 13814-13825 (2002).

[3] = area under fitted Gaussian, fixed centres
[4] = percentage of counts in class (number of observations), O^2axis 0.5 to 0.7
[5] = percentage of counts in class (number of observations), O^2axis above 0.7
[6] = percentage of counts in class (number of observations), O^2axis up to 0.5

Row | Substance | <O^2CαCO> [1] | <O^2NH> [1] | % J [2, 3] [%] | % α [2, 3] [%] | % ω [2, 3] [%] | % α [2, 4] [%] | % ω [2, 5] [%] | % J [2, 6] [%]
1 | AKSKWKQAFNATAVVRHMRKLQ (listed as Homo sapiens) [CaMKI(p)] | 0.88 ± 0.14 | 0.94 ± 0.08 | 38.2 | 24.8 | 37.0 | 30 | 32 | 38
2 | (COOH-FPNGFSRKRLMSKVLIVTTWSPLL [CaMKKα(p)] | 0.79 ± 0.21 | 0.93 ± 0.08 | 38.5 | 21.3 | 40.3 | 30 | 35 | 35
3 | KRRAIGFKKLAEAVKFSAKLMGQ [nNOS(p)] | 0.85 ± 0.16 | 0.92 ± 0.08 | 51.6 | 14.7 | 33.7 | 25 | 30 | 45
4 | QTEKMWQRLKGILRSLVKQ [PDE(p)] | – | 0.92 ± 0.06 | 48.3 | 18.9 | 32.8 | 33 | 20 | 46
5 | RKKTFKEVANAVKISASLMG [eNOS(p)] | – | – | 45.6 | 18.4 | 36.0 | 30 | 33 | 38
